According to publication doi:10.1101/2021.03.29.435803:

Target: HA-FBXW7 (UniProt Q8VBV4)
Experiment: FLAG IP, HA immunoblot
Conditions: reference: wild type

Row | Substance | binding against the reference (sites T171,S175) | binding against the reference (sites T243,S247)
1 | KLF2 (from UniProt Q60843) 2A N (T171A/S175A) | weaker | –
2 | KLF2 (from UniProt Q60843) 2A C (T243A/S247A) | – | weaker
